From publication PMC8828746

The substances below were run against Fc-tagged human angiotensin-converting enzyme 2 (hACE2) (human) (UniProt Q9BYF1) (assay: BLI).

Q: Which Kd does the source give for “6× His-tagged S1 protein of SARS-CoV-2 Kappa (B.1.617.1) variant (domain or fragment)” here?
A: Its Kd is 4.85 nM.

Q: With “6× His-tagged S1 protein of SARS-CoV-2 Delta (B.1.617.2) variant (domain or fragment)” as the substance, how does the Kd read?
A: The Kd was 5.03 nM.

Q: With “6× His-tagged S1 protein of SARS-CoV-2 Omicron (B.1.1.529) variant (domain or fragment)” as the substance, how does the Kd read?
A: Its Kd is 7.4 nM.
